Target: IL-13 receptor (IL-4Rα and IL-13Rα1) (UniProt P24394)
UniProt P24394, sequence (P24394 26-825, chain 1 of 2): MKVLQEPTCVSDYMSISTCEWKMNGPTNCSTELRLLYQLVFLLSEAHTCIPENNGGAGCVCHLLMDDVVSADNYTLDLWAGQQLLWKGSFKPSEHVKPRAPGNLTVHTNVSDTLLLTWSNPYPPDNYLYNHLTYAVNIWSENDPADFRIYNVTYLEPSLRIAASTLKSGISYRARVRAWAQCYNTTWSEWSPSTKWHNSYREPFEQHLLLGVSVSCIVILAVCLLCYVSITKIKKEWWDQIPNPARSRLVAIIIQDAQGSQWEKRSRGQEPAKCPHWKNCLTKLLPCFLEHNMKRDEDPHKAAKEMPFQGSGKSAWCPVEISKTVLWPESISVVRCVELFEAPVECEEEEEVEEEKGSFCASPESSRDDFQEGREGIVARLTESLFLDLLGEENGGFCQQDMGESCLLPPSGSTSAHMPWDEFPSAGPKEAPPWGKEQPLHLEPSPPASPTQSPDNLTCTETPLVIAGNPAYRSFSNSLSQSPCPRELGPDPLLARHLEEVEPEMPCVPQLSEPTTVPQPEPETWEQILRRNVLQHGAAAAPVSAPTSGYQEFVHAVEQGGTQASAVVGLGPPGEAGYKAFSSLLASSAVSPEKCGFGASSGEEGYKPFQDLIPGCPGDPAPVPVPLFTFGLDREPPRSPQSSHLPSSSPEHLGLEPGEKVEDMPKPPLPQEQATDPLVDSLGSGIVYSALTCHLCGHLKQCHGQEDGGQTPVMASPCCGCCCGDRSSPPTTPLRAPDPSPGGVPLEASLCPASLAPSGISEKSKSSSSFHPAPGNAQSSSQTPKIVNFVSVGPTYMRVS
UniProt P24394, sequence (P78552 22-427, chain 2 of 2, further chain): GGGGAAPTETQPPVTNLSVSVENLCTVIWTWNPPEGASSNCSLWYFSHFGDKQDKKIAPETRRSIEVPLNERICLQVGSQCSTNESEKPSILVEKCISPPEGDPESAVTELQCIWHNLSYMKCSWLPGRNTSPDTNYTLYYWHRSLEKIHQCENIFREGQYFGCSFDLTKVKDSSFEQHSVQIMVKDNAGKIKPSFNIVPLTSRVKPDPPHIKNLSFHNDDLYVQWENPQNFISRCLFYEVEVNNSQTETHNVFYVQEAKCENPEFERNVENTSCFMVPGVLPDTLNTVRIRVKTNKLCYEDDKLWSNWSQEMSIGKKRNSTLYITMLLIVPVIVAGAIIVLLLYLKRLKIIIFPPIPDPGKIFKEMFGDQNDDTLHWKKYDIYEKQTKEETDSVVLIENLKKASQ

human recombinant interleukin 13 (from UniProt P35225 25-146) (ligand)
SEAP reporter (P STAT6/cEBP-SEAP) in HEK-293 cells co-transfected with IL-13Rα1, IL-4Rα and STAT6, 48 h with different physiological IL-13 concentrations; fold induction: 33 fold

Source: PMC5653676
